In the DeepSol protein solubility set:

experiment: soluble on expression in E. coli; label from the status in PepcDB or PDB records

Row | Sequence | soluble on expression in E. coli
1 | MNLLVTSSLGVLLHLVVLCQADDHSELLVNTKSGKVMGTRVPVLSSHISAFLGIPFAEPPVGNMRFRRPEPKKPWSGVWNASTYPNNCQQYVDEQFPGFSGSEMWNPNREMSEDCLYLNIWVPSPRPKSTTVMVWIYGGGFYSGSSTLDVYNGKYLAYTEEVVLVSLSYRVGAFGFLALHGSQEAPGNVGLLDQRMALQWVHDNIQFFGGDPKTVTIFGESAGGASVGMHILSPGSRDLFRRAILQSGSPNCPWASVSVAEGRRRAVELGRNLNCNLNSDEELIHCLREKKPQELIDVEWNVLPFDSIFRFSFVPVIDGEFFPTSLESMLNSGNFKKTQILLGVNKDEGSFFLLYGAPGFSKDSESKISREDFMSGVKLSVPHANDLGLDAVTLQYTDWMDDNNGIKNRDGLDDIVGDHNVICPLMHFVNKYTKFGNGTYLYFFNHRASNLVWPEWMGVIHGYEIEFVFGLPLVKELNYTAEEEALSRRIMHYWATFAKTGNPNEPHSQESKWPLFTTKEQKFIDLNTEPMKVHQRLRVQMCVFWNQFLPKLLNATACDGELSSSGTSSSKGIIFYVLFSILYLIF | soluble
2 | SADDFGFFSSSESGAPEAAEEDPAAAFLAQQESEIAGIENDEGFGAPAGSHAAPAQPGPTSGAGSEDMGTTVNGDVFQEANGPADGYAAIAQADRLTQEPESIRKWREEQRKRLQELDAASKVTEQEWREKAKKDLEEWNQRQSEQVEKNKINNRASEEAFVKESKEETPGTEWEKVAQLCDFNPKSSKQCKDVSRLRSVLMSLKQTPLSR | soluble
3 | MSLTVSPLSGSLTPIGSEVKRGAELAVQEQAAAFKALGYDLVLTPYDDQASATLAPQIARTIVADKNVLGVVGALNSSVSNVIAQAFGPAKLAMISPASTGDQLTQNGWNHFSRVVAPDSAQGVAAADYIAEELKAGSVVVISDNTAYGNGLTRVLMANLKKRKVPVAAYMGASTPAQIAEAVKRVKASSADVVYFGGTDDTGSQLVKALRAAGVTATFMGGDGLDSPSFLQRAGIAGAGVVYSTVFGPVSAFSNALDFSDRYRAAYKTKPSGVAVYAYDATNTLLSAIKAAAGNSRTLPTRAEVSAAVRKVNLPACFSADKSRCATITGAIAFSDSGERLRSRVMIMRFDDVLQPQVAKVQTVNAESLKEGHHHHHH | soluble
4 | MSLNKAILHDHLDGGLRPSTALELAKNDSYKPLLEIENISSFFDRSSSNSLEDYLEAFIHTTALMNKYENLERIAFEAAEDMHNCGINLYESRYAPLYSVNENLSIKDVLESINSGFKQAENLYGIQSGLILCGMRNDLKNVESVGEIAVKYKDLIIGFDIAGPELNFRPSLFSSTFKKVKNAGVNITIHAGEGDNVESIKDALENGAKRIGHGVRIIEDINLENNKLGETASLIRDKQIPLEICITSNIHTNMYKSYESHPIKDLVDLGFNISLNTDNRLMSNTDIVKEMNICKNIGIKNPENLLEMSASYSFLNEGHHHHHH | not soluble
5 | MIVAIIDGYTDEPAGLGVPPYLGLYPRYAYGAIKKARRDANIFYLTIDDLRATFEGEQGIKTKNKTPNFPKVKEILEKAEVIVFIGGLHTPGKYLSAVPGSVEEVSKFISHYNGVKVLGGPAFMGSAKIGGVKVTTKELRFAEEVFDYVVYGDIEAFLFDYFSGRELDPFRFRDYEELQPYALLGAEVVKQFPGYPEFVLIEIETQRGCPKAMGIGGCSFCTEPVRYRVVENRPQEYVAQEVKVFYNLGIRHFRIGRQSCIFSYMAKPNGRVPIPNPEEVEKLFKAVRLAAPNVKTLHVDNANPAVIANYPEESKRIAKAIIRYGTPGNVVAFGLETADPKVARINNLNATPEETYEAVKIINEVGGKRGYNGLPWLLPGINIIFGLPGETKRTYELTYEFLKKILDDGLMVRRINIRQVVVFPGTPLWNMRDKVKTEKHKKLIEHYRHKIRHEIDLPMLKRIVPVGTILRDVRAEIYDGELTFGRQFGSYPLIVGIPKRVELDRYYDVMIVDHGLRSVTGIPVPIDVNGESSKVLRWLPGIGKKTLARILAKRPFKSEEEFLSLLPEDVKKMYKGKIKV | soluble
6 | MLFWLMASLWPMKAGVVYADQTEGAITFVSDEKIEGWATAPGIGNGQGNSIRYFMIRIQPKEQSGTAVSYRAEAVEAPADRNGEKKYTFSLDMRGKWPSAPGTMVTYQITVDAYRVLGNGKEDVYFSFPQTPYQYTRQTEASTAKLDFSLSFSQPEYAKPPNGDAQGRLDVTLVPQGAVSGIIRPPIDVVFVMDVSGSMTAMKLQSAKSALQAAVNYFKSNYNQNDRFALIPFSDGVREASVVPFGKYSNVASQLDAILNTGNSLTAGGGTNYSAALSLAKSYFTDPTRKKYIIFLTDGMPTVLNAVDTITYREVKQNFWGGYSYTGNRVTDSLSITYELYSDGRTAGIRFTDNKGYSRRFYSDGQDYVNGWRVSWDNGYSFTYSSIEGKIRADATAVAKTLGMNNITLYSIGFGDNDEVDMDYLRSLSATAGGEARQGTTQNLTALFQQFSQLATTPAITGTIRIPLSSFGGNVAVAENGQVWLDENKQNAYISFSIPYQVGQGTPAPVTIPIPVSFKAKGTYTFTAELTYRDVYGQLQPAVTKTVTVTVKDEAPPSFTGTVKLQGLTNDVTGLIKRGATDGDDNRFRATYSLSLVGYVGNATGTISNVSIVQELPDGISVVPDGKVTTYVENGKRYAKWSFTNQMFDYSQLNKLTLSAQWVMQADFAMNSVQLPPASVTFTDSRYGAKTSTLVPPAERIGMTVRLDDFPNFYYEGNGKGTITKHKFSALSDDIVGQANPNSYGLLPLPVKALEYDPNDDGVLLVTYSNGQTGIGVH | not soluble
7 | MSDSSPTNLPSRAFATQKLAKLIDRWTGNANQYDTPISGLRFSRWTTPTPPTSYTHNPSICLIAQGRKRVLLGEESFIYDANHFLISSVDLPIIANIIEASEEQPYLGLIMELDLTEISQLIVDSELAFTQSKEAQKGIAVGELSESLLDAFVRLAELLDEGQNIKILAPIIKREIFYRLLMSEQGTRLHQIATAGSHSHQIAKAIDWLKNNFVKPLSVGDLASYTGMSKSSFYTHFRSMTSMTPLQFQKKLRLSEARRLMLTENLDAMAATFKVGYESPSQFSREYSRLFGAPPSKDIKSLRENLG | not soluble
8 | SNARGLGSELKDSIPVAELSASGPFESHDLLRKGFSCVKNELLPSHPLELSEKNFQLNQDKMNFSTLRNIQGLFAPLKLQMEFKAVQQVHRLPFLPSSNLSLDILRGNDETIGFEDILNDPSQSELMGEPHVMVEHKLGLL | soluble
9 | MGSDKIHHHHHHMSQQEFDVLVIGAGISGAALFYELARYTNIKNIALIEKYNTAATLNSKGTSNSQTIHCGDIETNYTLEKARKVKRTADMIVKYGLMQNAQNNFMFSHQKMALAVGDIECDYMKKRYEEFKELYPYIKFFDKAKIKQIEPKVVLGEDCNQDRPENICAMGVESGEVFTTVDFGKMSINLIEQAQKQNKNTFVAFNQEIIHIEKKDDIFILKTSNHQEYHAKSVVVNAGAHSLYLAHKMNLGMDKSCWPVAGSFYLTKQKLLNGKVYMVQNPKLPFAALHGDPDLLADMNTRFGPTALVIPKLERYHGLKSVPEFFEALKLDKTVLKVTFNMFKDATIRNYIFYNYLFELPFVDKSLFVKDAKKIVPSLKASDIYYAKGFGGVRPQVIDKTKGELMLGEASITETPGIIFNMTPSPGATSCLGNAERDAKLVCNYLGMEFNEDKFSSELL | not soluble
10 | GMELKSAEEKSLYYRNKIKEVIDEVGKVVVGQKYMINRLLIGICTGGHILLEGVPGLAKTLSVNTLAKTMDLDFHRIQFTPDLLPSDLIGTMIYNQHKGNFEVKKGPVFSNFILADEVNRSPAKVQSALLECMQEKQVTIGDTTYPLDNPFLVLATQNPVEQEGTYPLPEAQVDRFMMKIHLTYLDKESELEVMRRVSNMNFNYQVQKIVSKNDVLEIRNEINKVTISESLEKYIIELVFATRFPAEYGLEAEASYILYGASTRAAINLNRVAKAMAFFNNRDYVLPEDIKEVAYDILNHRIILNYEAEAEGISTRQIIETILRKVNITKA | soluble
11 | MTGNLVTKNSLTPDVRNGIDFKIADLSLADFGRKELRIAEHEMPGLMSLRREYAEVQPLKGARISGSLHMTVQTAVLIETLTALGAEVRWASCNIFSTQDHAAAAVVVGPHGTPDEPKGVPVFAWKGETLEEYWWAAEQMLTWPDPDKPANMILDDGGDATMLVLRGMQYEKAGVVPPAEEDDPAEWKVFLNLLRTRFETDKDKWTKIAESVKGVTEETTTGVLRLYQFAAAGDLAFPAINVNDSVTKSKFDNKYGTRHSLIDGINRGTDALIGGKKVLICGYGDVGKGCAEAMKGQGARVSVTEIDPINALQAMMEGFDVVTVEEAIGDADIVVTATGNKDIIMLEHIKAMKDHAILGNIGHFDNEIDMAGLERSGATRVNVKPQVDLWTFGDTGRSIIVLSEGRLLNLGNATGHPSFVMSNSFANQTIAQIELWTKNDEYDNEVYRLPKHLDEKVARIHVEALGGHLTKLTKEQAEYLGVDVEGPYKPDHYRY | soluble
12 | MMPTEYPATAEESVDVITDALLTASRLLVAISAHSIAQVDENITIPQFRTLVILSNHGPINLATLATLLGVQPSATGRMVDRLVGAELIDRLPHPTSRRELLAALTKRGRDVVRQVTEHRRTEIARIVEQMAPAERHGLVRALTAFTEAGGEPDARYEIE | soluble
13 | MNQELKLRPLEREDLKFVHELNNNAHIMSYWFEEPYEAFVELQDLYDKHIHDQSERRFIVEKDNEMVGLVELVEIDYIHRRTEFQIIIDPNYQGYGYAVEATRLAMDYAFAVLNMHKIYLVVDKENEKAVHVYKKVGFMVEGELIDEFFVDGNYHNAIRMCMFQKQYFENK | not soluble
14 | MSLELVSFVKSHIDQAVYFSTITSNPIEFNLPESLSLDTTDIENDIKTSCDEIFYSTGSYIPPMLNTLEQHLNLRIEYFNNLIEFTKINFNYKISPTVKLYLIEKISILKCCLALFKYISDKAILSNIWRDLVLNSFNDSSLEEFVLGKLDEFPRLFTIFLNDLSAKIVGFNDVEEKVKIVDLLITCVYDAVLENCEKSIRYDALQLDPLELDNKPMWFTNLTNIKAMNNIFFSFIFPDNDLSVENKQRLLTVVKLLYYVINQNMIWHKSMKQIETEEYKEVEALYNDNHANWIHVLCNIGVHEEALQICEFYHDLGGLVEILEKLDFEISRELYDQYFKMFGYEFATILFEYYINAKDLKALFFKFPNHHDLLNKFLLSSPPKYYKYAWIQEIIDNDYRKASDILTTLSVGEAGDGCEISERQLHLNIAKLSGLVDENFDANQMIEIQRDIDTIDHQTRIKKLLEEDPTGISMNQAFANNEFGEKFQETKYCIQNDKSINIKYIIDMLSMMDSVENLYEALKLTCIYRHSLGYEVSKYFQQSIWRRCIIEESKDGVIQLEGENSKIYQLLVKYFEGKLYEYDCKLPFVSFLMDRIGISMNFLSIIYGNDNNVLVSISDSIEREYHDLIRIGDTLESQLSTIIGSANESTGNECTINYETKSIEYEGHHHHHH | soluble
15 | MGSDKIHHHHHHGCKEKDMSMKMNEPHNIKGVISYKRSFGDLNDTHLSVAKKIGIRPLASRSEAEGLGGKLVQIKPCERYAMDSLTHSIPFLIPQASALLDTIGANFLDSLSCKGLNPNQIIVTSVLRTADDVKRLRRRNGNASANSAHAFGTTFDVSYRRFCKVEDPDGRPMQDVSPDTLKLVLAEVLRDLRKSDKCYIKYELKQGCFHITAR | not soluble
16 | MLNSNNHQTEWKWPRLIQIMEIGNSAMKNTMSKTLYMSYNFIARTSGKTYHAPVLVVDCSVNEGWLWMRICHNCLGCLCTGYWAAQRTFATTTGLRLVWL | soluble
17 | MMNQSRIKPVRMLILLRKLSPISRRIRIRNRLKQKTRSATIKSRCNPCLISVLANCYWCSSSASPPSGAATTACGGKNGSGLDSRVAFTGDNGAERTDPGVKTPGVSGQSEKG | not soluble
